Measured values from patent US20170137855A1, “RECOMBINANT CELLS AND METHODS FOR NONPHOSPHORYLATIVE METABOLISM” (REGENTS OF THE UNIVERSITY OF MINNESOTA, priority 2015, published 2017).

Assays:
[1] = substrate: O=C(O)C(=O)C[C@H](O)CO; experiment: B. xenovorans 2-keto-3-deoxy-D-xylonate dehydratase, coupled assay with KGSADH; format: biochemical, Burkholderia xenovorans LB400; settings: other: coupled assay, substrate from 0-20 mM D-xylonate, 1 mM NAD+, pH 7.5, 25° C.
Experimental: (§1) 2-Keto-3-deoxy-D-xylonate dehydratase (XylX/DR64-8450), 2-keto-3-deoxy-L-arabonate dehydratase (AraD) and 5-keto-4-deoxy-D-glucarate dehydratase (YcbC): Enzyme activities of XylX, DR64-8450, AraD and YcbC were assayed spectrophotometrically in a coupled assay with the corresponding previous dehydratase and 2-ketoglutaric semialdehyde dehydrogenase (KGSADH) as previously described (Watanabe et al., 2006. J Biol. Chem. 281:33521-33536). […] The reaction was initiated by adding an appropriate amount of 2-keto-3-deoxy-D-xylonate dehydratase (XylX/DR64-8450)/2-keto-3-deoxy-L-arabonate dehydratase (AraD)/5-keto-4-deoxy-D-glucarate dehydratase (YcbC), and the increasing absorbance at 340 nm caused by NADH produced in the reaction was monitored.

[2] = substrate: O=C(O)[C@H](O)[C@@H](O)[C@H](O)CO; experiment: C. crescentus D-xylonate dehydratase, semicarbazide method; format: biochemical, Caulobacter crescentus; settings: other: 100 nM enzyme, 100 mM Tris-HCl, 5 mM MgSO4, pH 7.5
From the text: (§2) Finally, the 2-ketoacids produced were quantified by detecting their semicarbazone absorbance at 250 nm.

[3] = substrate: O=C(O)C(=O)C[C@H](O)CO; experiment: C. crescentus 2-keto-3-deoxy-D-xylonate dehydratase, coupled assay with KGSADH; format: biochemical, Caulobacter crescentus; settings: other: coupled assay, substrate from 0-20 mM D-xylonate, 1 mM NAD+, pH 7.5, 25° C.
Experimental: as §1

[4] = substrate: O=C(O)[C@H](O)[C@@H](O)[C@@H](O)CO; experiment: L-arabonate dehydratase, semicarbazide method; format: biochemical, Burkholderia multivorans; settings: other: 100 nM enzyme, 100 mM Tris-HCl, 5 mM MgSO4, pH 7.5
From the text: as §2

[5] = substrate: O=C(O)[C@@H](O)[C@H](O)[C@H](O)[C@@H](O)C(=O)O; experiment: purified protein, by the assay type; settings: other: 100 nM enzyme, 100 mM Tris-HCl, 5 mM MgSO4, pH 7.5
[6] = substrate: O=C(O)C(=O)C[C@@H](O)CO; experiment: 2-keto-3-deoxy-L-arabonate dehydratase, coupled assay with KGSADH; format: biochemical, Burkholderia multivorans; settings: other: coupled assay, substrate from 0-20 mM L-arabonate, 1 mM NAD+, pH 7.5, 25° C.
Experimental: as §1

[7] = substrate: OC1OC[C@H](O)[C@H](O)[C@H]1O; experiment: L-arabinose dehydrogenase, NADH generation at 340 nm; format: biochemical, Burkholderia multivorans; settings: other: L-arabinose 0 to 10 mM, 1 mM NAD+, pH 7.5, 30° C.
Experimental: A series of enzymatic assays were conducted to estimate the initial activity as a function of starting substrate concentration. […] Kinetic constants (kcat/Km) for following enzymes were calculated with the same method.

[8] = substrate: O=C(O)[C@H](O)[C@@H](O)[C@H](O)CO; experiment: B. xenovorans D-xylonate dehydratase, semicarbazide method; format: biochemical, Burkholderia xenovorans LB400; settings: other: 100 nM enzyme, 100 mM Tris-HCl, 5 mM MgSO4, pH 7.5
From the text: as §2

[9] = substrate: O=C(O)[C@H]1OC(O)[C@H](O)[C@@H](O)[C@H]1O; experiment: purified protein, by the assay type; settings: other: D-galacturonate 0 to 10 mM, 1 mM NAD+, pH 7.5, 30° C., 30.0 °C

B1: Burkholderia xenovorans LB400 2-keto-3-deoxy-D-xylonate dehydratase (DR64_8450) (Paraburkholderia xenovorans LB400) (protein)
chain: MSATSPSSFLPDDLGQALLVGRVWRKTDQHEGPSVVVVRGGEVFDITATVPTTADLFDREDAAPLARTAPGVSLGAVAQLIASNLPGAAAPALRLLAPCDVQAIKACGVTFAVSLIERVIEEQAAGDPAKAKEVRDTIASMIGTDLSKIEPGSDAAMKLKAELERRGAWSQYMEVGIGPDAEVFSKSQPMSAVGFGADVGLLAASTWNNPEPEIVLAVNSRGEIVGATLGNDVNLRDIEGRSALLLGKCKDNNGSCAIGPFVRLFDESFSLDSVRTASVALRVEGADDGFVLEGVSHMSEISRDPANLVAQTWGRHHQYPDGFMLFLGTMFSPIKDRDAPGAGFTHHLGDLVTISTPQLGALTNTVRLSTEIEPWTFGVRALYRNLAARGLLASA
notes: coupled with D-xylonate dehydratase and KGSADH
Km [1]: 8960 ± 200 µM | kcat [1]: 4.72 ± 0.5 s⁻¹ | kcat/Km [1]: 530 M⁻¹ s⁻¹

B2: Caulobacter crescentus D-xylonate dehydratase (XylD) (Caulobacter vibrioides CB15) (protein)
chain: MRSALSNRTPRRFRSRDWFDNPDHIDMTALYLERFMNYGITPEELRSGKPIIGIAQTGSDISPCNRIHLDLVQRVRDGIRDAGGIPMEFPVHPIFENCRRPTAALDRNLSYLGLVETLHGYPIDAVVLTTGCDKTTPAGIMAATTVNIPAIVLSGGPMLDGWHENELVGSGTVIWRSRRKLAAGEITEEEFIDRAASSAPSAGHCNTMGTASTMNAVAEALGLSLTGCAAIPAPYRERGQMAYKTGQRIVDLAYDDVKPLDILTKQAFENAIALVAAAGGSTNAQPHIVAMARHAGVEITADDWRAAYDIPLIVNMQPAGKYLGERFHRAGGAPAVLWELLQQGRLHGDVLTVTGKTMSENLQGRETSDREVIFPYHEPLAEKAGFLVLKGNLFDFAIMKSSVIGEEFRKRYLSQPGQEGVFEARAIVFDGSDDYHKRINDPALEIDERCILVIRGAGPIGWPGSAEVVNMQPPDHLLKKGIMSLPTLGDGRQSGTADSPSILNASPESAIGGGLSWLRTGDTIRIDLNTGRCDALVDEATIAARKQDGIPAVPATMTPWQEIYRAHASQLDTGGVLEFAVKYQDLAAKLPRHNH
notes: His; made in house; host or cells: E. coli BL21
Km [2]: 1180 ± 50 µM | kcat [2]: 7.6 ± 1.1 s⁻¹ | kcat/Km [2]: 6400 M⁻¹ s⁻¹

B3: Caulobacter crescentus 2-keto-3-deoxy-D-xylonate dehydratase (XylX) (Caulobacter vibrioides NA1000) (protein)
chain: MGVSEFLPEDWKAATLLGRIDFGEGPTPVLVRGGRVEDVSKIAPTVADLMNAFQPGAVIPRGEDKGPLEALDIRPVWEDPDGAAPVKLLAPVDLQCLKAAGVTFAVSTLERVIEERARGDAGEALKIRTLLAERMGGDLKSVEPGSQGAQRLKDALIADGLWSQYLEVAIGPDAEIFTKGPTLSSMGWGDQVGVRYDSHWNNPEPEVVLLCDGSGLIRGAALGNDVNLRDFEGRSALLLSKAKDNNASCAIGPFFRLFDETFGLDDVRSAEVELKITGRDNFVLDGKSNMSLISRDPAVLAGQAYGKQHQYPDGFALFLGTMFAPIQDRDTPGQGFTHKVGDRVRVSTPKLGVLENEVTTCDKAKPWTFGISALIRNLAGRGLL
notes: coupled with XylD and KGSADH; BlpI site removed in gene
Km [3]: 1900 ± 80 µM | kcat [3]: 0.53 ± 0.1 s⁻¹ | kcat/Km [3]: 260 M⁻¹ s⁻¹

B4: Burkholderia multivorans L-arabonate dehydratase (AraC, BmulJ 5323) (Burkholderia multivorans ATCC 17616) (protein)
chain: MSATKPRLRSAQWFGTNDKNGFMYRSWMKNQGIPDHEFDGRPIIGICNTWSELTPCNAHFRKLAEHVKRGIFEAGGFPVEFPVFSNGESNLRPSAMLTRNLASMDVEEAIRGNPIDAVVLLAGCDKTTPALLMGAASCDVPAIVVSGGPMLNGKLEGKNIGSGTAVWQLHEALKAGEIDLHHFLSAEAGMSRSAGTCNTMGTASTMACMAEALGVALPHNAAIPAVDSRRYVLAHMSGIRIVEMALEGLVLSKVLTRAAFENAIRVNAAIGGSTNAVIHLKAIAGRIGVPLELEDWMRIGRDTPTIVDLMPSGRFLMEEFYYAGGLPAVLRRLGEGGLLPHPDALTVNGKTLWDNVREAPNYDDEVIRPLDRPLIADGGIRILRGNLAPRGAVLKPSAASPELLKHRGRAVVFENFDHYKATINDESLDVDANSVLVLKNCGPRGYPGMAEVGNMGLPPKLLRQGVKDMVRISDARMSGTAYGTVVLHVAPEAAAGGPLAAVRNGDWIELDCEAGTLHLDIPDDELQRRLSDVDPAAAPGVAGQAGKGGYARLYLDHVLQADEGCDLDFLVGTRGAEVPSHSH
notes: gene from B. multivorans genomic DNA
kcat [4]: 0.17 s⁻¹

B5: E. coli D-galactarate dehydratase (GarD) (Escherichia coli K-12) (protein)
chain: MANIEIRQETPTAFYIKVHDTDNVAIIVNDNGLKAGTRFPDGLELIEHIPQGHKVALLDIPANGEIIRYGEVIGYAVRAIPRGSWIDESMVVLPEAPPLHTLPLATKVPEPLPPLEGYTFEGYRNADGSVGTKNLLGITTSVHCVAGVVDYVVKIIERDLLPKYPNVDGVVGLNHLYGCGVAINAPAAVVPIRTIHNISLNPNFGGEVMVIGLGCEKLQPERLLTGTDDVQAIPVESASIVSLQDEKHVGFQSMVEDILQIAERHLQKLNQRQRETCPASELVVGMQCGGSDAFSGVTANPAVGYASDLLVRCGATVMFSEVTEVRDAIHLLTPRAVNEEVGKRLLEEMEWYDNYLNMGKTDRSANPSPGNKKGGLANVVEKALGSIAKSGKSAIVEVLSPGQRPTKRGLIYAATPASDFVCGTQQVASGITVQVFTTGRGTPYGLMAVPVIKMATRTELANRWFDLMDINAGTIATGEETIEEVGWKLFHFILDVASGKKKTFSDQWGLHNQLAVFNPAPVT
Km [5]: 760 µM | kcat [5]: 18.9 s⁻¹

B6: Burkholderia multivorans 2-keto-3-deoxy-L-arabonate dehydratase (AraD, BmulJ 5321) (Burkholderia multivorans ATCC 17616) (protein)
chain: MTSSRTPRYRGIFPVVPTTFTETGELDLASQKRAVDFMIDAGSDGLCILANFSEQFALADDERDVLTRTILEHVAGRVPVIVTTSHYSTQTCIARSVRAQQLGAAMVMVMPPYHGATFRVPEAQIHAFYARLSDALSIPIMIQDAPASGTVLSAPFLAQLAREIEHVAYFKIETPGAATKLRELIRLGGDAIEGPWDGEEAITLLADLHAGATGAMTGGAYPDGIRPILEAHREGRHDDAFARYQTWLPLINHENRQSGILTAKALMREGGVIACEAPRHPMPTLHPDTRAELIAIARRLDPLVLRWAR
notes: coupled with AraC and KGSADH
Km [6]: 9700 µM | kcat [6]: 0.23 s⁻¹

B7: Burkholderia multivorans L-arabinose dehydrogenase (AraA, BmulJ 5320) (Burkholderia multivorans ATCC 17616) (protein)
chain: MSQVVSLGVVGIGKIARDQHLPAIAAEPGFALTACASRHAEVTGVRNYPDLGALLAGEPELAAVSLCAPPQVRYAQARAALNAGKHVMLEKPPGATLGEVAALEALAQSRGLTLFATWHSRCASAVEPARAWLATREIRAVQVRWKEDVRRWHPGQQWIWEPGGLGVFDPGINALSIVTRILPRELVLREATLVVPSDTQTPIAAELECADTDGVPVHAEFDWRHGPVEQWEIAVDTADGVLAISAGGAKLSIAGEPVEVGPAREYPALYAQFHALIARRESDVDVRPLRLVADAFLFGRRVDTEAFGR
notes: as for B4
kcat [7]: 101.4 s⁻¹

B8: Burkholderia xenovorans LB400 D-xylonate dehydratase (DR64_8449) (Paraburkholderia xenovorans LB400) (protein)
chain: MSASTPRRLRSQEWFDDPSHADMTALYVERFMNYGLTREELQSGRPIIGIAQTGSDLAPCNRHHIELAARTKAGIRDAGGIPMEFPVHPLAEQSRRPTAALDRNLAYLGLVEILHGFPLDGVVLTTGCDKTTPACLMAAATVDMPAIVLSGGPMLDGWHEGKRVGSGTVIWHARNLLATGEIDYEGFMQLTTASSPSIGHCNTMGTALSMNSLAEALGMSLPGCASIPAAYRERGQMAYATGKRIVDLVREDVRPSHIMTKAAFENAIVVASALGASTNCPPHLIAIARHMGVELTLDDWQRVGEQVPLIVNCMPAGEYLGESFHRAGGVPAVLRELVHAQLVHRECLTVSGRTIGEIAADAPSPDRDVIRTTEDPLKHGAGFIVLSGNFFDSAIMKMSVVGEAFRQTYLSEPGNENTFEARAIVFDGPEDYHARINDPSLDIDQHCILVIRGAGTVGYPGSAEVVNMAPPAELVRQGITSLPTLGDGRQSGTSASPSILNMSPEAAVGGGLSLLRTNDRIRVDLNSRSVNVLVDDEELARRRETATFAIPPTQTPWQELYRQTVGQLSTGGCLEPATLYLKVIAERGNPRHSH
notes: gene from LB400 genomic DNA
Km [8]: 1520 ± 80 µM | kcat [8]: 1.73 ± 0.3 s⁻¹ | kcat/Km [8]: 1140 M⁻¹ s⁻¹

B9: Pseudomonas putida KT2440 uronate dehydrogenase (Udh) (Pseudomonas putida KT2440) (protein)
chain: MTTTPFNRLLLTGAAGGLGKVLRERLKGYAEVLRLSDISPMAPAAGPHEEVITCDLADKAAVHTLVEGVDAIIHFGGVSTEHAFEEILGPNICGVFHVYEAARKHGVKRIIFASSNHTIGFYRQDERIDAHAPRRPDSYYGLSKCYGEDVASFYFDRYGIETVSIRIGSSFPQPQNLRMLCTWLSYDDLVQLIERGLFTPGVGHTIVYGASDNRTVWWDNRHAAHLGYVPKDSSETFRAAVEAQPAPAADDPSMVYQGGAFAVAGPFN
Km [9]: 150 µM | kcat [9]: 24.1 s⁻¹
